Reference: patent US20260176358A1 (JIANGSU HENGRUI PHARMACEUTICALS, published 2026)

T1: human CGRP (human, UniProt P06881 83-119)
T1 peptide (looked up): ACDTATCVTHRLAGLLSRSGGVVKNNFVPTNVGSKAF

T2: rat CGRP (rat, UniProt P01256 83-119)
T2 peptide (looked up): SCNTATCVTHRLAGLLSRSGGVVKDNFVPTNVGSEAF


Tests used:
[1] = target: T1, human CGRP; assay: ELISA, coated CGRP
Method: (§1) In this test example, the abilities of the chimeric antibodies and humanized antibodies of C1 #, C9 #, C21 #, and C28 #to bind to human CGRP and rat CGRP were assessed using ELISAs. Plates were coated with […] human CGRP and rat CGRP, respectively, and blocked, and the antibodies, serially diluted, were then added. The plates were incubated for 1 h and washed, and a horseradish peroxidase-labeled anti-human Fc secondary antibody was then added. After incubation, color development was performed. […] The plates were incubated for 1 h and washed, and the antibodies, serially diluted, were then added. The plates were incubated for 1 h and washed, and a horseradish peroxidase-labeled streptavidin secondary antibody was then added. After incubation, color development was performed.

[2] = target: T2, rat CGRP; assay: ELISA, coated CGRP
Method: as §1

EC50 [1] | EC50 [2] | Binder
3.4 nM | 9.27 nM | C21H2L2 (antibody, human IgG1, kappa, V domains shown) VH: EVQLVQSGAEVKKPGASVKVSCKASGYTFTDYYMNWVRQAPGQRLEWIGDINPNQGGTNYNQKFKGRATLTVDKSASTAYMELSSLRSEDTAVYYCASIIIVPNYFDYWGQGTTVTVSS VL: DIQMTQSPSSLSASVGDRVTITCKASQNVDTNVAWFQQKPGKSPKALIYSASYRYSGVPSRFSGSGSGTDFTLTISSLQPEDFATYYCQQYNNYPYTFGGGTKVEIKR
1.3 nM | 4.27 nM | C9H3L1 (antibody, human IgG1, kappa, V domains shown) VH: EVQLVQSGAEVKKPGASVKVSCKASGYTFTDYYMNWVRQAPGQRLEWMGVINPYQGRTTYNRKFKGRVTITVDKSASTAYMELSSLRSEDTAVYYCASLLIRPHYFDYWGQGTTVTVSS VL: DIQMTQSPSSLSASVGDRVTITCKASQNVGTNVAWYQQKPGKSPKALIYSASYRYSGVPSRFSGSGSGTDFTLTISSLQPEDVATYHCQQYNFYPYTFGQGTKLEIKR
2.57 nM | 5.26 nM | C21H1L2 (antibody, human IgG1, kappa, V domains shown) VH: EVQLVQSGAEVKKPGASVKVSCKASGYTFTDYYMNWVRQAPGQRLEWIGDINPNNVGTNYNQKFKGRATLTVDKSASTAYMELSSLRSEDTAVYYCASIIIVPNYFDYWGQGTTVTVSS VL: DIQMTQSPSSLSASVGDRVTITCKASQNVDTNVAWFQQKPGKSPKALIYSASYRYSGVPSRFSGSGSGTDFTLTISSLQPEDFATYYCQQYNNYPYTFGGGTKVEIKR
1.43 nM | 6.45 nM | C28H4L1 (antibody, human IgG1, kappa, V domains shown) VH: EVQLVQSGAEVKKPGASVKVSCKASGYTFTDYYMNWVRQAPGQRLEWIGDINPNQGVTTYNQKFKGRATLTVDKSASTAYMELSSLRSEDTAVYYCASIIIVPDYFDYWGQGTTVTVSS VL: DIQMTQSPSSVSASVGDRVTITCKASQNVGSNVAWYQQKPGKSPKALIYSASYRYSGVPSRFSGSGSGTDFTLTISSLQPEDFATYYCQQYNSYPYTFGGGTKVEIKR
2.8 nM | 5.68 nM | C21H4L2 (antibody, human IgG1, kappa, V domains shown) VH: EVQLVQSGAEVKKPGASVKVSCKASGYTFTDYYMNWVRQAPGQRLEWIGDINPNTGGTNYNQKFKGRATLTVDKSASTAYMELSSLRSEDTAVYYCASIIIVPNYFDYWGQGTTVTVSS VL: DIQMTQSPSSLSASVGDRVTITCKASQNVDTNVAWFQQKPGKSPKALIYSASYRYSGVPSRFSGSGSGTDFTLTISSLQPEDFATYYCQQYNNYPYTFGGGTKVEIKR
1.58 nM | 3.72 nM | C28H5L1 (antibody, human IgG1, kappa, V domains shown) VH: EVQLVQSGAEVKKPGASVKVSCKASGYTFTDYYMNWVRQAPGQRLEWIGDINPNSGVTTYNQKFKGRATLTVDKSASTAYMELSSLRSEDTAVYYCASIIIVPDYFDYWGQGTTVTVSS VL: DIQMTQSPSSVSASVGDRVTITCKASQNVGSNVAWYQQKPGKSPKALIYSASYRYSGVPSRFSGSGSGTDFTLTISSLQPEDFATYYCQQYNSYPYTFGGGTKVEIKR
2.9 nM | 7.36 nM | C21H4L1 (antibody, human IgG1, kappa, V domains shown) VH: EVQLVQSGAEVKKPGASVKVSCKASGYTFTDYYMNWVRQAPGQRLEWIGDINPNTGGTNYNQKFKGRATLTVDKSASTAYMELSSLRSEDTAVYYCASIIIVPNYFDYWGQGTTVTVSS VL: DIQMTQSPSSLSASVGDRVTITCKASQNVDTNVAWFQQKPGKAPKSLIYSASYRYSGVPSRFSGSGSGTDFTLTISSLQPEDFATYYCQQYNNYPYTFGGGTKVEIKR
1.65 nM | 3.97 nM | C28H3L1 (antibody, human IgG1, kappa, V domains shown) VH: EVQLVQSGAEVKKPGASVKVSCKASGYTFTDYYMNWVRQAPGQRLEWMGDINPNQGVTTYNQKFKGRVTITVDKSASTAYMELSSLRSEDTAVYYCASIIIVPDYFDYWGQGTTVTVSS VL: DIQMTQSPSSVSASVGDRVTITCKASQNVGSNVAWYQQKPGKSPKALIYSASYRYSGVPSRFSGSGSGTDFTLTISSLQPEDFATYYCQQYNSYPYTFGGGTKVEIKR
1.47 nM | 2.72 nM | C28H7L1 (antibody, human IgG1, kappa, V domains shown) VH: EVQLVQSGAEVKKPGASVKVSCKASGYTFTDYYMNWVRQAPGQRLEWIGDINPNTGVTTYNQKFKGRATLTVDKSASTAYMELSSLRSEDTAVYYCASIIIVPDYFDYWGQGTTVTVSS VL: DIQMTQSPSSVSASVGDRVTITCKASQNVGSNVAWYQQKPGKSPKALIYSASYRYSGVPSRFSGSGSGTDFTLTISSLQPEDFATYYCQQYNSYPYTFGGGTKVEIKR
3.57 nM | 7.94 nM | C21H3L1 (antibody, human IgG1, kappa, V domains shown) VH: EVQLVQSGAEVKKPGASVKVSCKASGYTFTDYYMNWVRQAPGQRLEWMGDINPNSGGTNYNQKFKGRVTITVDKSASTAYMELSSLRSEDTAVYYCASIIIVPNYFDYWGQGTTVTVSS VL: DIQMTQSPSSLSASVGDRVTITCKASQNVDTNVAWFQQKPGKAPKSLIYSASYRYSGVPSRFSGSGSGTDFTLTISSLQPEDFATYYCQQYNNYPYTFGGGTKVEIKR
2.54 nM | 3.86 nM | C21H1L1 (antibody, human IgG1, kappa, V domains shown) VH: EVQLVQSGAEVKKPGASVKVSCKASGYTFTDYYMNWVRQAPGQRLEWIGDINPNNVGTNYNQKFKGRATLTVDKSASTAYMELSSLRSEDTAVYYCASIIIVPNYFDYWGQGTTVTVSS VL: DIQMTQSPSSLSASVGDRVTITCKASQNVDTNVAWFQQKPGKAPKSLIYSASYRYSGVPSRFSGSGSGTDFTLTISSLQPEDFATYYCQQYNNYPYTFGGGTKVEIKR
1.83 nM | 3.1 nM | C1H1L1 (antibody, human IgG1, kappa, V domains shown) VH: EVQLVQSGAEVKKPGSSVKVSCKASGYTFSTSWMNWVRQAPGQGLEWMGQIYPGDGYTNYSGKFRGRVTITADKSTSTAYMELSSLRSEDTAVYYCAGDYEALWGQGTTVTVSS VL: DIVMTQTPLSLPVTPGEPASISCRSSQSLVHSNGNTYFHWYLQKPGQSPQLLIYEVSNRFSGVPDRFSGSGSGTDFTLKISRVEAEDVGVYYCSQSTHVPFTFGQGTKLEIKR
2.72 nM | 2.44 nM | C1H1L2 (antibody, human IgG1, kappa, V domains shown) VH: EVQLVQSGAEVKKPGSSVKVSCKASGYTFSTSWMNWVRQAPGQGLEWMGQIYPGDGYTNYSGKFRGRVTITADKSTSTAYMELSSLRSEDTAVYYCAGDYEALWGQGTTVTVSS VL: DIVMTQTPLSLPVTPGEPASISCRSSQSLVHSSGNTYFHWYLQKPGQSPQLLIYEVSNRFSGVPDRFSGSGSGTDFTLKISRVEAEDVGVYYCSQSTHVPFTFGQGTKLEIKR
2.61 nM | 2.38 nM | C1H2L1 (antibody, human IgG1, kappa, V domains shown) VH: EVQLVQSGAEVKKPGSSVKVSCKASGYTFSTSWMNWVRQAPGQGLEWMGQIYPGDGYTNYQGKFRGRVTITADKSTSTAYMELSSLRSEDTAVYYCAGDYEALWGQGTTVTVSS VL: DIVMTQTPLSLPVTPGEPASISCRSSQSLVHSNGNTYFHWYLQKPGQSPQLLIYEVSNRFSGVPDRFSGSGSGTDFTLKISRVEAEDVGVYYCSQSTHVPFTFGQGTKLEIKR
1.39 nM | 1.97 nM | C1H3L2 (antibody, human IgG1, kappa, V domains shown) VH: EVQLVQSGAEVKKPGSSVKVSCKASGYTFSTSWMNWVRQAPGQGLEWMGQIYPGDGYTNYNVKFRGRVTITADKSTSTAYMELSSLRSEDTAVYYCAGDYEALWGQGTTVTVSS VL: DIVMTQTPLSLPVTPGEPASISCRSSQSLVHSSGNTYFHWYLQKPGQSPQLLIYEVSNRFSGVPDRFSGSGSGTDFTLKISRVEAEDVGVYYCSQSTHVPFTFGQGTKLEIKR
